Measurements from publication PMC10530723, “The Conserved Chromatin Remodeler SMARCAD1 Interacts with TFIIIC and Architectural Proteins in Human and Mouse” (Genes, 2023).

Target: T1, His-SMARCAD1 (human, recombinant) (human, UniProt Q9H4L7 1-1026)
T1 construct: also called hSMARCAD1; His-tagged human SMARCAD1; source: insect cells (baculovirus), purified via a His-tag
T1 sequence (looked up): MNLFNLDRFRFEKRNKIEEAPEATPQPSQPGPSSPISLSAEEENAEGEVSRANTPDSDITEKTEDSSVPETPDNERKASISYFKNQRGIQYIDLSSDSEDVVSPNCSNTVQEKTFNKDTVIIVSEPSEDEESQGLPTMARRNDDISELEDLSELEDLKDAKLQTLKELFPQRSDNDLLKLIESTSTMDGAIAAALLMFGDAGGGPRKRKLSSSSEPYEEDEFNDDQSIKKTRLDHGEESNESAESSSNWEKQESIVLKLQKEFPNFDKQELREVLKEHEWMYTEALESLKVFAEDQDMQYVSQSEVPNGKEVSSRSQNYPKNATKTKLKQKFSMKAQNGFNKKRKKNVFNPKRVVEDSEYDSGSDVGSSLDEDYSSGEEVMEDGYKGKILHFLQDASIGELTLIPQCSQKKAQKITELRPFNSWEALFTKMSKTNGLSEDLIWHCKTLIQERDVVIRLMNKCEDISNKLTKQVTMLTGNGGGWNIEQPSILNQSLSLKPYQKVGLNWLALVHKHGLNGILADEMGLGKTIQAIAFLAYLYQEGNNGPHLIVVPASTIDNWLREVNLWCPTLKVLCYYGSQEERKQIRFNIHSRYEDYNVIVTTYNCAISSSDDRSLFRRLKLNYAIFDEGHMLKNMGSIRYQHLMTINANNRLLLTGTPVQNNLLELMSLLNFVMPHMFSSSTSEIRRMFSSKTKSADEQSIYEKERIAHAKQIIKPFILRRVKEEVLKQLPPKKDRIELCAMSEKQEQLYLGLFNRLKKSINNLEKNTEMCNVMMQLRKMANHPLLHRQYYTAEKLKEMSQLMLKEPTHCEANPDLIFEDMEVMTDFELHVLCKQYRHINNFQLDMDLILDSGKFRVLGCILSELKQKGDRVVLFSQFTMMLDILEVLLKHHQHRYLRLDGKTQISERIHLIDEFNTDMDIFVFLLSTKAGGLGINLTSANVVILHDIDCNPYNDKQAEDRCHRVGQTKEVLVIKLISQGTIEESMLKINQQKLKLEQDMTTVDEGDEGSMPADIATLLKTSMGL
Test: pull-down; GST fusion proteins on glutathione Sepharose 4B beads (13 ug protein), 1 ug His-Smarcad1 in solution; 100 mM NaCl, 20 mM Hepes, 5% glycerol, 0.1% Triton; 1.5 h at 4 °C; bound protein detected by Western blot with anti-SMARCAD1
Conditions: both partners purified

binding result: binds
B1: GST-TFIIIC102 (human, full-length) (natural protein, UniProt Q9Y5Q9 1-886, looked up)
chain: MSGFSPELIDYLEGKISFEEFERRREERKTREKKSLQEKGKLSAEENPDDSEVPSSSGINSTKSQDKDVNEGETSDGVRKSVHKVFASMLGENEDDEEEEEEEEEEEEEEETPEQPTAGDVFVLEMVLNRETKKMMKEKRPRSKLPRALRGLMGEANIRFARGEREEAILMCMEIIRQAPLAYEPFSTLAMIYEDQGDMEKSLQFELIAAHLNPSDTEEWVRLAEMSLEQDNIKQAIFCYTKALKYEPTNVRYLWERSSLYEQMGDHKMAMDGYRRILNLLSPSDGERFMQLARDMAKSYYEANDVTSAINIIDEAFSKHQGLVSMEDVNIAAELYISNKQYDKALEIITDFSGIVLEKKTSEEGTSEENKAPENVTCTIPDGVPIDITVKLMVCLVHLNILEPLNPLLTTLVEQNPEDMGDLYLDVAEAFLDVGEYNSALPLLSALVCSERYNLAVVWLRHAECLKALGYMERAAESYGKVVDLAPLHLDARISLSTLQQQLGQPEKALEALEPMYDPDTLAQDANAAQQELKLLLHRSTLLFSQGKMYGYVDTLLTMLAMLLKVAMNRAQVCLISSSKSGERHLYLIKVSRDKISDSNDQESANCDAKAIFAVLTSVLTKDDWWNLLLKAIYSLCDLSRFQEAELLVDSSLEYYSFYDDRQKRKELEYFGLSAAILDKNFRKAYNYIRIMVMENVNKPQLWNIFNQVTMHSQDVRHHRFCLRLMLKNPENHALCVLNGHNAFVSGSFKHALGQYVQAFRTHPDEPLYSFCIGLTFIHMASQKYVLRRHALIVQGFSFLNRYLSLRGPCQESFYNLGRGLHQLGLIHLAIHYYQKALELPPLVVEGIELDQLDLRRDIAYNLSLIYQSSGNTGMAQTLLYTYCSI
notes: TFIIIC102, human, full-length, cDNA from OriGene (RC208122) cloned into pGEX-6P-1 (BamH1/Not1); pGEX-6P-1 places GST at the N-terminus (surmised from the vector; the reverse primer carries the stop codon); also called hTFIIIC102; human TFIIIC102 GST-fusion protein; source: E. coli, purified (glutathione Sepharose 4B beads)
